# Laboratory results reported in patent US20030194411A1.
# How the values were obtained:
# [1] = target: MN-PND peptide … (HIV-1 MN strain); assay: MN-PND ELISA, serum 1:500, day 0
# [2] = target: MN-PND peptide … (HIV-1 MN strain); assay: MN-PND ELISA, serum 1:1000, day 0
# [3] = target: MN-PND peptide … (HIV-1 MN strain); assay: MN-PND ELISA, serum 1:100, day 0
# [4] = target: MN-PND peptide … (HIV-1 MN strain); assay: MN-PND ELISA, serum 1:2500, day 0
# [5] = target: MN-PND peptide … (HIV-1 MN strain); assay: MN-PND ELISA, serum 1:20, day 0
substance,measurement,setting,value
"guinea pig serum sample 0 (day 0, Example V) (antibody)",O.D.,[1],0.05 O.D.
same,O.D.,[2],0.05 O.D.
same,O.D.,[3],0.07 O.D.
same,O.D.,[4],0.04 O.D.
same,O.D.,[5],0.15 O.D.
